Test results published in patent publication US20260266833A1.
pKd: −log10 of the molar value.

What was measured:
H3K9me3 peptide = experiment: fluorescence polarization, FITC-peptide 0.5 nM
H3K4me3 (mouse) [1] = experiment: ChIP-seq of the EGFP control in mESCs, correlation with antibody ChIP-seq of the mark, counts at 1-kb intervals
[2] = target: H3K27me3-marked histone H3 in chromatin of mouse embryonic stem cells (mouse); experiment: as above
[3] = target: H3K9me3-marked histone H3 in chromatin of mouse embryonic stem cells (mouse); experiment: as above
H3K4me3 (mouse) [4] = experiment: ChIP-seq of the EGFP control in mESCs, correlation with antibody ChIP-seq of the mark, 1-kb bins on chromosome 19
[5] = target: H3K27me3-marked histone H3 in chromatin of mouse embryonic stem cells (mouse); experiment: as above
[6] = target: H3K9me3-marked histone H3 in chromatin of mouse embryonic stem cells (mouse); experiment: as above

Chain of Cbx1.wt chromodomain (tags removed), P83916 17-79 (P83916 17-79 limits assumed): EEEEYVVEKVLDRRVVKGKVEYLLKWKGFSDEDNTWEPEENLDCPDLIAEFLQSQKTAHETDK
Chain of Cbx5.wt chromodomain (tags removed), P45973 17-78 (P45973 17-78 limits assumed): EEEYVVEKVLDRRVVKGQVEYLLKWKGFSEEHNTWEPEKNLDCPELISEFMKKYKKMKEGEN
Chain of Cbx3.wt chromodomain (tags removed), Q13185 23-81 (Q13185 23-81 limits assumed): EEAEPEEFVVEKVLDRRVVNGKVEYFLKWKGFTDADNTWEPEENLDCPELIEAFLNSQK

Work on “Cbx3.wt chromodomain (tags removed), Q13185 23-81” yielded a pKd (H3K9me3 peptide) of 5.70.

Substance EGFP has a Pearson correlation (H3K4me3 (mouse) [1]) of 0.14, a Pearson correlation [2] of 0.2 and a Pearson correlation [3] of 0.32. It also gave a Pearson correlation (H3K4me3 (mouse) [4]) of 0.2, a Pearson correlation [5] of -0.1 and a Pearson correlation [6] of -0.3.

For “Cbx1.wt chromodomain (tags removed), P83916 17-79”, the pKd (H3K9me3 peptide) was 6.30.

Substance “Cbx5.wt chromodomain (tags removed), P45973 17-78” has a pKd (H3K9me3 peptide) of 5.30.
